Assay results taken from article PMC3664666 (Science signaling, 2012).

Biological target: T1, phosphorylated Mt-MviN KHD 681-963 (M. tuberculosis, UniProt P9WJK2 681-963, phosphothreonine at 947)
T1 sequence: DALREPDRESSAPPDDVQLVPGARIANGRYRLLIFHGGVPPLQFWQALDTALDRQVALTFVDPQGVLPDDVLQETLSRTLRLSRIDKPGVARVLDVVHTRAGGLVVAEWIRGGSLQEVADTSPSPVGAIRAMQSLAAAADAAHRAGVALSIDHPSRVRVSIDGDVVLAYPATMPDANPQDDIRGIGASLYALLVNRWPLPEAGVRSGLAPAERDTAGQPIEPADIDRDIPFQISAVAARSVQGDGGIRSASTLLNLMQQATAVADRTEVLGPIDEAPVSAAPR
Test: ITC

B1: FhaA FHA domain (residues 390 to 525) (domain or fragment)
chain: PQGGGYAEPAGRDYDYGQSGAPDYGQPAPGGYSGYGQGGYGSAGTSVTLQLDDGSGRTYQLREGSNIIGRGQDAQFRLPDTGVSRRHLEIRWDGQVALLADLNSTNGTTVNNAPVQEWQLADGDVIRLGHSEIIVR
With B1 the Kd was 58 ± 2 nM.
